# In paper PMC4536312 (Genes & Development, 2015):
# Residue numbers refer to the chain shown, from its start.
# T1: U2AF23, the small subunit of fission yeast Schizosaccharomyces pombe U2AF (Schizosaccharomyces pombe, UniProt Q09176 1-216)
# T1 sequence: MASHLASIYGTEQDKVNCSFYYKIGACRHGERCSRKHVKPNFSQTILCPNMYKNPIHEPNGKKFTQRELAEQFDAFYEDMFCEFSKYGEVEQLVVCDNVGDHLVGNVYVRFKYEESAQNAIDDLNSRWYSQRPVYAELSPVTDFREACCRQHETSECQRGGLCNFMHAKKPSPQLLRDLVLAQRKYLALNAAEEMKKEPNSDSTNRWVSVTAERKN
# T2: U2AF23 F20A;U2AF59 fragment (Schizosaccharomyces …, UniProt Q09176;P36629 1-216;93-161, F20A|)
# T2 sequence 1: T1 sequence with F20A
# T2 sequence 2: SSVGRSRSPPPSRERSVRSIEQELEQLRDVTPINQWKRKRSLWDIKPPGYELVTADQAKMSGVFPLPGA
# T3: U2AF23 R35S;U2AF59 fragment (Schizosaccharomyces …, UniProt Q09176;P36629 1-216;93-161, R35S|)
# T3 sequence 1: T1 sequence with R35S
# T3 sequence 2: T2 sequence 2
# T4: U2AF23 WT;U2AF59 fragment (Schizosaccharomyces …, UniProt Q09176;P36629 1-216;93-161, |)
# T4 sequence 1: T1 sequence
# T4 sequence 2: T2 sequence 2
# T5: U2AF23 F165A;U2AF59 fragment (Schizosaccharomyces …, UniProt Q09176;P36629 1-216;93-161, F165A|)
# T5 sequence 1: T1 sequence with F165A
# T5 sequence 2: T2 sequence 2
# T6: U2AF23 R159S;U2AF59 fragment (Schizosaccharomyces …, UniProt Q09176;P36629 1-216;93-161, R159S|)
# T6 sequence 1: T1 sequence with R159S
# T6 sequence 2: T2 sequence 2
# T7: U2AF23 R150S;U2AF59 fragment (Schizosaccharomyces …, UniProt Q09176;P36629 1-216;93-161, R150S|)
# T7 sequence 1: T1 sequence with R150S
# T7 sequence 2: T2 sequence 2
# T8: U2AF23 R28S;U2AF59 fragment (Schizosaccharomyces …, UniProt Q09176;P36629 1-216;93-161, R28S|)
# T8 sequence 1: T1 sequence with R28S
# T8 sequence 2: T2 sequence 2
# T9: U2AF23 Q151R;U2AF59 fragment (Schizosaccharomyces …, UniProt Q09176;P36629 1-216;93-161, Q151R|)
# T9 sequence 1: T1 sequence with Q151R
# T9 sequence 2: T2 sequence 2
# B1: U2AF59 fragment spanning residues 93–161 (S. pombe U2AF large subunit) (domain or fragment)
# chain: T2 sequence 2
# Assays:
# [1] = target: T1, U2AF23, the small subunit of fission …; experiment: crystal structure
# [2] = target: T2, U2AF23 F20A;U2AF59 fragment; experiment: ITC
# [3] = target: T3, U2AF23 R35S;U2AF59 fragment; experiment: ITC
# [4] = target: T4, U2AF23 WT;U2AF59 fragment; experiment: ITC
# [5] = target: T5, U2AF23 F165A;U2AF59 fragment; experiment: ITC
# [6] = target: T6, U2AF23 R159S;U2AF59 fragment; experiment: ITC
# [7] = target: T7, U2AF23 R150S;U2AF59 fragment; experiment: ITC
# [8] = target: T8, U2AF23 R28S;U2AF59 fragment; experiment: ITC
# [9] = target: T9, U2AF23 Q151R;U2AF59 fragment; experiment: ITC
binder,measurement,setting,value
B1,binding result,[1],binds
CUAGG (ssRNA),binding result,[2],no binding
same,binding result,[3],no binding
same,Kd,[4],1.2 µM
same,binding result,[5],no binding
same,binding result,[6],no binding
same,binding result,[7],no binding
same,Kd,[8],12 µM
same,Kd,[9],0.75 µM
CUAUG (ssRNA),binding result,[4],no binding
same,Kd,[9],53 µM
UUUUUUUUUU (ssRNA) [U10],binding result,[4],no binding
CUACG (ssRNA),binding result,[4],no binding
CUCGG (ssRNA),Kd,[4],296 µM
CUGGG (ssRNA),Kd,[4],63 µM
CUUGG (ssRNA),Kd,[4],429 µM
